Laboratory results as given in patent US6861578B1, “Method for plant protection against insects or nematodes by transformation with a nucleic acid encoding equistatin” (Plant Research International B.V., priority 1997, dated 2005).
Where a SMILES comes first, the peptide text is derived from it. [ ]: non-standard residue; d: D form. The star is where a group is joined. Sta = CC(C)C[C@H](N)[C@@H](O)CC(=O)O; Isovaleryl = CC(C)CC(=O)*

Experiments:
leafminer proteases = experiment: Protease activity of adult leafminer fly extract, FITC-hemoglobin; type: biochemical, Liriomyza trifolii; conditions: leafminer pH 3.5; equistatin purified from sea anemone
Method: (§1) Adult western flower thrips (Frankliniella occidentalis) and leafmirer flies (Liriomyza trifolii) adult were harvested from a culture maintained on chrysanthemum plants and complete thrips and flies were homogenized in extraction on buffer (200 mM β-alanine-HCl, pH 3.5) in a volume of 5 times the weight of the insects. The buffer pH was at the previously determined pH optimum of protease activity towards hemoglobin. Final instar Colorado potato beetle larvae maintained on potato plants as described in example 5 were checked for gut aspartic protease activity by preparing a total gut extract in pH 3 buffer which is optimal for Colorado potato beetle aspartic proteases (200 mM glycine, pH 3). Guts were homogenized in 100 μl buffer per gut. Third instar western corn rootworm larvae maintained on corn roots were used to remove the guts. Ten guts were homogenized in 100 μl water and spinned twice to remove insoluble material. Two types of buffers were used in the enzymatic assay. One with a pH presumably favoring cysteine proteases (50 mM MES, pH 6.5; 0.6 mg/ml L-cysteine) and one for detecting aspartic proteases (200 mM glycine, pH 3). Supernatants were stored at −20° C.
(§2) 2 μl gut extract was combined with 2 μl inhibitor (2 mM pepstatin in methanol, 4 mM E64 in water, 2 mg/ml recombinant equistatin in water. The concentration of the other proteinaceous inhibitors was not known exactly). Appropriate buffers were added to a final volume of 100 μl. After 15′ preincubation 20 μl substrate (5 mg/ml FITC-hemoglobin) was added and incubated for 30-45 min at 37 C.
(§3) Reaction was stopped by the addition of 100 μl 10% TCA. Tubes were centrifuged and 100 μl supernatant mixed with 100 μl 10 N NaOH was measured on a fluorimeter for the extent of hemoglobin hydrolysis. Measurements were done in duplicate on one (thrips, leafminer and western corn rootworm), or three (Colorado potato beetle) different gut extracts and varied by a maximum of +/−5%.

[1] = system: western corn rootworm cysteine and aspartic protease activity; experiment: Protease activity of western corn rootworm larval gut extract, FITC-hemoglobin; type: biochemical, Diabrotica virgifera; conditions: recombinant equistatin
Method: as §1, §2, §3

[2] = system: Colorado potato beetle proteases; experiment: Protease activity of Colorado potato beetle larval gut extract at pH 3, FITC-hemoglobin; type: biochemical, Leptinotarsa decemlineata; design: inhibition of total protease activity / increase of inhibition by addition of equistatin to E64 / increase of inhibition by addition of equistatin to pepstatin: concentration or dose not given beside the values
Method: as §1, §2, §3

thrips protease activity = experiment: Protease activity of adult western flower thrips extract, FITC-hemoglobin; type: biochemical, Frankliniella occidentalis; design: inhibition of protease activity: concentration or dose not given beside the values
Method: as §1, §2, §3

[3] = biological target: potato protease inhibitor-insensitive cysteine proteases of Colorado potato beetle (Leptinotarsa decemlineata) larval gut extracts; experiment: cell-based or functional assay
[4] = biological target: proteases in extracts of adult leafminer flies (Liriomyza trifolii); experiment: cell-based or functional assay
[5] = system: Colorado potato beetle larval gut extracts (potato protease inhibitor-insensitive cysteine proteases); experiment: General proteolytic activity of Colorado potato beetle larval gut extracts, azocasein; type: biochemical, Leptinotarsa decemlineata
From the text: Guts of final instar Colorado potato beetle larvae reared on methyl jasmonate induced plants were isolated and extracted essentially as described (Bolter and Jongsma, J. Insect Physiol. 41: 1071-1078). In these gut extracts the proteases that are sensitive to the protease inhibitors of potato are already complexed. The residual protease activity is composed of potato protease-inhibitor-insensitive proteases which were induced in response to the methyl jasmonate induced potato inhibitors. These proteases are the proteases that render the beetle larvae insensitive to protease inhibitor defense of the potato plant. Wle tested a broad range of different cysteisie protease inhibitors for activity specifically against these induced potato protease inhibitor-insensitive cysteine protesses. Nearly all of these inhibitors were purified at the Jozef Stefan Institute in Slovenia. Testing their potential against Colorado potato beetle was done using both general protein substrates (azocasein, table 2) as well as specific synthetic substrates (L-Arg-pNA, table 3; pGlu-Phe-Leu-pNA, table 4; Z-Phe-Arg-pNA, table 5; Z-Arg-Arg-pNA, table 6). In specific cases inhibitors were tested at two concentrations, eauimolar and in excess to the protease, in order to obtain an indication of the tightness of the complex. […] Importantly, this class of inhibitors was capable of inhibiting nearly all general cysteine protease activity. The equistatin peptide molecule and a functional derivative thereof were not very active against the aminopeptidase-like cysteine protease activity. […] The best combination of inhibitors for full toxicity against the Colorado potato beetle would therefore be a combination of equistatin or p41 invariant chain fragment and stefin-like inhibitors.

Molecule: CC(C)CC(=O)N[C@H](C(=O)N[C@H](C(=O)N[C@@H](CC(C)C)[C@@H](O)CC(=O)N[C@@H](C)C(=O)N[C@@H](CC(C)C)[C@@H](O)CC(=O)O)C(C)C)C(C)C [Pepstatin, reference compound] (Isovaleryl-VV[Sta]A[Sta]-OH)
- residual protease activity (leafminer proteases): 46%
- residual protease activity ([1]; western corn rootworm pH 3): 45%
- residual protease activity ([1]; western corn rootworm pH 6.5): 58%
- inhibition of total protease activity ([2]; Colorado potato beetle, pH3): 82%
- residual protease activity ([2]; colorado potato beetle pH 3, recombinant equistatin): 18%
- residual protease activity (thrips protease activity; thrips pH 3.5, equistatin purified from sea anemone): 84%
- inhibition of protease activity (thrips protease activity; thrips, pH 3.5): 16%

Molecule: human kininogen 3rd domain (from UniProt P01042 273-376)
- residual general proteolytic activity (azocasein) in excess of inhibitor (% residual activity) [3]: 20

Molecule: soybean cystatin
- residual general proteolytic activity (azocasein) in excess of inhibitor (% residual activity) [3]: 65

Molecule: Aspartic protease inhibitor (API) purified from potato
- residual protease activity (FITC-hemoglobin), pH 3.5 (% residual activity) [4]: 37

Molecule: cowpea cystatin
- residual general proteolytic activity (azocasein) in excess of inhibitor (% residual activity) [3]: 75

Molecule: Chelidonium majus cystatin
- residual general proteolytic activity (azocasein) in excess of inhibitor (% residual activity) [3]: 100

Molecule: bromelain inhibitor
- residual general proteolytic activity (azocasein) in excess of inhibitor (% residual activity) [3]: 110

Molecule: porcine stefin D2 (from UniProt P80736 1-35)
- residual general proteolytic activity (azocasein) in excess of inhibitor (% residual activity) [3]: 105

Molecule: Recombinant potato cystatin (p.cystatin), a monomer of multicystatin expressed as a fusion protein with glutathione-S-transferase
- residual protease activity (FITC-hemoglobin), pH 3.5 (% residual activity) [4]: 73

Molecule: bovine kininogen
- residual general proteolytic activity (azocasein) in excess of inhibitor (% residual activity) [3]: 110

Molecule: human LMW kininogen (from UniProt P01042 19-427)
- residual general proteolytic activity (azocasein) in excess of inhibitor (% residual activity) [3]: 65

Molecule: PCPI 6.6
- residual general proteolytic activity (azocasein) in excess of inhibitor (% residual activity) [3]: 120

Molecule: Recombinant human stefin A (from UniProt P01040 1-98)
- residual amino-peptidase activity (L-Arg-pNA), equimolar inhibitor (% of residual activity) [3]: 60
- residual amino-peptidase activity (L-Arg-pNA), excess inhibitor (% of residual activity) [3]: 10
- residual broad spectrum endoprotease activity (Z-Phe-Arg-pNA), equimolar inhibitor (% of residual activity) [3]: 95
- residual broad spectrum endoprotease activity (Z-Phe-Arg-pNA), excess inhibitor (% of residual activity) [3]: 80
- residual general proteolytic activity (azocasein) in excess of inhibitor (% residual activity) [3]: 90
- residual narrow spectrum endoprotease activity (Z-Arg-Arg-pNA), excess inhibitor (% of residual activity) [3]: 90
- residual tri-peptidil-peptidase and endoprotease activity (pGlu-Phe-Leu-pNA), equimolar inhibitor (% of residual activity) [3]: 95
- residual tri-peptidil-peptidase and endoprotease activity (pGlu-Phe-Leu-pNA), excess inhibitor (% of residual activity) [3]: 90

Molecule: lens cystatin
- residual general proteolytic activity (azocasein) in excess of inhibitor (% residual activity) [3]: 60

B1: human cystatin c (protein, UniProt P01034 27-146, looked up)
chain: SSPGKPPRLVGGPMDASVEEEGVRRALDFAVGEYNKASNDMYHSRALQVVRARKQIVAGVNYFLDVELGRTTCTKTQPNLDNCPFHDQPHLKRKAFCSFQIYAVPWQGTMTLSKSTCQDA
- Residual activity in excess of inhibitor [5]: 105%
- residual general proteolytic activity (azocasein) in excess of inhibitor (% residual activity) [3]: 105

B2: rat stefin A (protein, UniProt P01039 1-103, looked up)
chain: MDPGTTGIVGGVSEAKPATPEIQEVADKVKRQLEEKTNEKYEKFKVVEYKSQVVAGQILFMKVDVGNGRFLHMKVLRGLSGDDDLKLLDYQTNKTKNDELTDF
- residual general proteolytic activity (azocasein) in excess of inhibitor (% residual activity) [3]: 90

B3: bovine kininogen: Type III cystatin (protein, UniProt P01044 19-621, looked up)
Kininogen-1: QESSQEIDCNDQDVFKAVDAALTKYNSENKSGNQFVLYRITEVARMDNPDTFYSLKYQIKEGDCPFQSNKTWQDCDYKDSAQAATGECTATVAKRGNMKFSVAIQTCLITPAEGPVVTAQYECLGCVHPISTKSPDLEPVLRYAIQYFNNNTSHSHLFDLKEVKRAQRQVVSGWNYEVNYSIAQTNCSKEEFSFLTPDCKSLSSGDTGECTDKAHVDVKLRISSFSQKCDLYPVKDFVQPPTRLCAGCPKPIPVDSPDLEEPLSHSIAKLNAEHDGAFYFKIDTVKKATVQVVAGLKYSIVFIARETTCSKGSNEELTKSCEINIHGQILHCDANVYVVPWEEKVYPTVNCQPLGQTSLMKRPPGFSPFRSVQVMKTEGSTTVSLPHSAMSPVQDEERDSGKEQGPTHGHGWDHGKQIKLHGLGLGHKHKHDQGHGHHGSHGLGHGHQKQHGLGHGHKHGHGHGKHKNKGKNNGKHYDWRTPYLASSYEDSTTSSAQTQEKTEETTLSSLAQPGVAITFPDFQDSDLIATVMPNTLPPHTESDDDWIPDIQTEPNSLAFKLISDFPETTSPKCPSRPWKPVNGVNPTVEMKESHDFDLVDALL
- Residual activity in excess of inhibitor [5]: 110%

B4: Recombinant Kunitz PCPI8.3 (produced in Pichia pastoris) (protein, potato, UniProt P20347 43-222, looked up)
chain: LVLPEVYDQDGNPLRIGERYIINNPLLGAGAVYLYNIGNLQCPNAVLQHMSIPQFLGEGTPVVFVRKSESDYGDVVRVMTVVYIKFFVKTTKLCVDQTVWKVNDEQLVVTGGKVGNENDIFKIMKTDLVTPGGSKYVYKLLHCPSHLGCKNIGGNFKNGYPRLVTVDDDKDFIPFVFIKA
- residual protease activity (FITC-hemoglobin), pH 3.5 (% residual activity) [4]: 43

B5: porcine stefin B (protein, UniProt Q29290 1-98, looked up)
chain: MMCGAPSATQPATAEIQAIADKVKSQLEEKENKTFPVFKAVEFKSQVVAGRNLFIKVQVDDDDFVHLRVFESLPHENKPLTLSSYQTNKSRHDELTYF
- Residual activity in excess of inhibitor [5]: 100%
- residual general proteolytic activity (azocasein) in excess of inhibitor (% residual activity) [3]: 100

B6: potato multicystatin (protein, UniProt P37842 1-756, looked up)
chain: MAIVGGLVDVPFENKVEFDDLARFAVQDYNQKNDSSLEFKKVLNVKQQIVAGIMYYITFEATEGGNKKEYEAKILLRKWEDLKKVVGFKLVGDDSTMPGGIVNVPNPNNTKFQELARFAIQDYNKKQNAHLEFVENLNVKEQVVAGIMYYITLAATDDAGKKKIYKAKIWVKEWEDFKKVVEFKLVGDDIAKLGGITDVPFPNNPEFQDLARFAIQVYNKKENVHLEFVENLNVKQQVVAGMMYYITLAAIDAGKKKIYETKIWVKEWEDFKKVVEFKLVGDDSAKTGGIINVPNPNSPEFQDLARFAVQDYNNTQNAHLEFVENLNVKEQLVSGMMYYITLAATDAGNKKEYEAKIWVKEWEDFKKVIDFKLVGNDSAKKLGGFTEVPFPNSPEFQDLTRFAVHQYNKDQNAHLEFVENLNVKKQVVAGMLYYITFAATDGGKKKIYETKIWVKVWENFKKVVEFKLVGDDSAKLGGIINVPFPNNPEFQDLARFAVQDYNKKENAHLEFVENLNVKEQLVAGMLYYITLVAIDAGKKKIYEAKIWVKEWENFKKVIEFKLIGDDSAIIGGFTDVPFPNNPEFQDLARFAVQDYNKKENAHLEYVENLNVKEQLVAGMIYYITLVATDAGKKKIYEAKIWVKEWEDFKKVVEFKLVGDDSAKPGGIIIVPFPNSPEFQDLARFAVQDFNKKENGHLEFVENLNVKEQVVAGMMYYITLAATDARKKEIYETKILVKEWENFKEVQEFKLVGDATK
- Residual activity in excess of inhibitor [5]: 90%
- residual general proteolytic activity (azocasein) in excess of inhibitor (% residual activity) [3]: 90

B7: porcine stefin D1 (protein, UniProt P35479 1-103, looked up)
chain: MESEEMLAGGLTEPRPATPEIQEIANKVKPQLEEKTNKTYEKFEAIIYRSQVVAGTNYYIKVHVGGNNYVHIRVFQSLPHQEDPLKLIGYQVDKTKDDELTGF
- residual general proteolytic activity (azocasein) in excess of inhibitor (% residual activity) [3]: 105

B8: chicken cystatin (protein, UniProt P01038 24-139, looked up)
chain: SEDRSRLLGAPVPVDENDEGLQRALQFAMAEYNRASNDKYSSRVVRVISAKRQLVSGIKYILQVEIGRTTCPKSSGDLQSCEFHDEPEMAKYTTCTFVVYSIPWLNQIKLLESKCQ
- Residual activity in excess of inhibitor [5]: 105%
- residual general proteolytic activity (azocasein) in excess of inhibitor (% residual activity) [3]: 105
